From patent US20200040057A1

Tests used:
[1] = target: HLA-B*07 (human); assay: UV peptide exchange ELISA; ++++ = yield >75%
[2] = target: HLA-B*07 (human); assay: UV peptide exchange ELISA; +++ = yield >50

Row | peptide exchange yield [1] | peptide exchange yield [2] | Binder
1 | > 75% |  | FPNEVSVVL
2 |  | 50 to 75% | LPRGLSPARQL
3 |  | 50 to 75% | VPRPTSTVGL
4 | > 75% |  | LPRIPFSTF
5 | > 75% |  | VPRPIFSQLYL
